Experimental data published in publication PMC3381609.
Numbering of substitutions follows the chain as printed. Names may count otherwise.

B1: β-glycosidase (β-gly) (Saccharolobus solfataricus P2; W33G) (protein)
chain: MYSFPNSFRFGWSQAGFQSEMGTPGSEDPNTDGYKWVHDPENMAAGLVSGDLPENGPGYWGNYKTFHDNAQKMGLKIARLNVEWSRIFPNPLPRPQNFDESKQDVTEVEINENELKRLDEYANKDALNHYREIFKDLKSRGLYFILNMYHWPLPLWLHDPIRVRRGDFTGPSGWLSTRTVYEFARFSAYIAWKFDDLVDEYSTMNEPNVVGGLGYVGVKSGFPPGYLSFELSRRAMYNIIQAHARAYDGIKSVSKKPVGIIYANSSFQPLTDKDMEAVEMAENDNRWWFFDAIIRGEITRGNEKIVRDDLKGRLDWIGVNYYTRTVVKRTEKGYVSLGGYGHGCERNSVSLAGLPTSDFGWEFFPEGLYDVLTKYWNRYHLYMYVTENGIADDADYQRPYYLVSHVYQVHRAINSGADVRGYLHWSLADNYEWASGFSMRFGLLKVDYNTKRLYWRPSALVYREIATNGAITDEIEHLNSVPPVKPLRH
B2: β-glycosidase (β-gly) (Saccharolobus solfataricus P2) (protein)
chain: B1 chain with G33W

Substrate: O=C1OC2(c3ccc(O[C@@H]4O[C@H](CO)[C@H](O)[C@H](O)[C@H]4O)cc3Oc3cc(O[C@@H]4O[C@H](CO)[C@H](O)[C@H](O)[C@H]4O)ccc32)c2ccccc21
Experiment: purified protein
Type: biochemical, Saccharolobus solfataricus
Conditions: no indole, pH 6.5, 37 °C, 50 mM sodium phosphate, 5% DMSO

Row | Protein | Km | kcat
1 | B1 | 1080 ± 30 µM | 0.00675 ± 0.00004 s⁻¹
2 | B2 | 58 ± 4 µM | 0.265 ± 0.002 s⁻¹
